*1 amine or outer side, *2 acyl side, *3 side chain or, on linkers, in order; H or OH if unused. Where no end group is shown, it is not given here. Side-chain parts run from the residue outwards. [ ]: non-standard residue; d: D form. The star is where a group is joined. C20 diacid = O=C(O)CCCCCCCCCCCCCCCCCCC(=O)*; C16 diacid = O=C(O)CCCCCCCCCCCCCCC(=O)*; γGlu = O=C(O)[C@H](CCC(=O)[*:2])N[*:1]; NMeI = CC[C@H](C)[C@H](NC)C(=O)O; AEEA = NCCOCCOCC(=O)O; Aib = CC(C)(N)C(=O)O
B1: SEQ ID NO 233 (peptide)
peptide: [NMeI]VLSLD[dV]PIKLK([AEEA-γGlu-C20 diacid])KILLEQEKQKEQREQAETN[Aib]QILAQV-NH2
modifications: N-terminus assumed
SMILES: CC[C@H](C)[C@H](NC)C(=O)N[C@H](C(=O)N[C@@H](CC(C)C)C(=O)N[C@@H](CO)C(=O)N[C@@H](CC(C)C)C(=O)N[C@@H](CC(=O)O)C(=O)N[C@@H](C(=O)N1CCC[C@H]1C(=O)N[C@H](C(=O)N[C@@H](CCCCN)C(=O)N[C@@H](CC(C)C)C(=O)N[C@@H](CCCCNC(=O)COCCOCCNC(=O)CC[C@H](NC(=O)CCCCCCCCCCCCCCCCCCC(=O)O)C(=O)O)C(=O)N[C@@H](CCCCN)C(=O)N[C@H](C(=O)N[C@@H](CC(C)C)C(=O)N[C@@H](CC(C)C)C(=O)N[C@@H](CCC(=O)O)C(=O)N[C@@H](CCC(N)=O)C(=O)N[C@@H](CCC(=O)O)C(=O)N[C@@H](CCCCN)C(=O)N[C@@H](CCC(N)=O)C(=O)N[C@@H](CCCCN)C(=O)N[C@@H](CCC(=O)O)C(=O)N[C@@H](CCC(N)=O)C(=O)N[C@@H](CCCNC(=N)N)C(=O)N[C@@H](CCC(=O)O)C(=O)N[C@@H](CCC(N)=O)C(=O)N[C@@H](C)C(=O)N[C@@H](CCC(=O)O)C(=O)N[C@H](C(=O)N[C@@H](CC(N)=O)C(=O)NC(C)(C)C(=O)N[C@@H](CCC(N)=O)C(=O)N[C@H](C(=O)N[C@@H](CC(C)C)C(=O)N[C@@H](C)C(=O)N[C@@H](CCC(N)=O)C(=O)N[C@H](C(N)=O)C(C)C)[C@@H](C)CC)[C@@H](C)O)[C@@H](C)CC)[C@@H](C)CC)C(C)C)C(C)C
B2: SEQ ID NO 230 (peptide)
peptide: Ac-IVLSLD[dV]PIKLK([AEEA-γGlu-C20 diacid])KILLEQEKQKKQREQAETN[Aib]QILAQV-NH2
SMILES: CC[C@H](C)[C@H](NC(C)=O)C(=O)N[C@H](C(=O)N[C@@H](CC(C)C)C(=O)N[C@@H](CO)C(=O)N[C@@H](CC(C)C)C(=O)N[C@@H](CC(=O)O)C(=O)N[C@@H](C(=O)N1CCC[C@H]1C(=O)N[C@H](C(=O)N[C@@H](CCCCN)C(=O)N[C@@H](CC(C)C)C(=O)N[C@@H](CCCCNC(=O)COCCOCCNC(=O)CC[C@H](NC(=O)CCCCCCCCCCCCCCCCCCC(=O)O)C(=O)O)C(=O)N[C@@H](CCCCN)C(=O)N[C@H](C(=O)N[C@@H](CC(C)C)C(=O)N[C@@H](CC(C)C)C(=O)N[C@@H](CCC(=O)O)C(=O)N[C@@H](CCC(N)=O)C(=O)N[C@@H](CCC(=O)O)C(=O)N[C@@H](CCCCN)C(=O)N[C@@H](CCC(N)=O)C(=O)N[C@@H](CCCCN)C(=O)N[C@@H](CCCCN)C(=O)N[C@@H](CCC(N)=O)C(=O)N[C@@H](CCCNC(=N)N)C(=O)N[C@@H](CCC(=O)O)C(=O)N[C@@H](CCC(N)=O)C(=O)N[C@@H](C)C(=O)N[C@@H](CCC(=O)O)C(=O)N[C@H](C(=O)N[C@@H](CC(N)=O)C(=O)NC(C)(C)C(=O)N[C@@H](CCC(N)=O)C(=O)N[C@H](C(=O)N[C@@H](CC(C)C)C(=O)N[C@@H](C)C(=O)N[C@@H](CCC(N)=O)C(=O)N[C@H](C(N)=O)C(C)C)[C@@H](C)CC)[C@@H](C)O)[C@@H](C)CC)[C@@H](C)CC)C(C)C)C(C)C
B3: SEQ ID NO 231 (peptide)
peptide: Ac-IVLSLD[dV]PIKLK([AEEA-γGlu-C20 diacid])KILLEQEKQKEQREQAETN[Aib]QILAQV-NH2
SMILES: CC[C@H](C)[C@H](NC(C)=O)C(=O)N[C@H](C(=O)N[C@@H](CC(C)C)C(=O)N[C@@H](CO)C(=O)N[C@@H](CC(C)C)C(=O)N[C@@H](CC(=O)O)C(=O)N[C@@H](C(=O)N1CCC[C@H]1C(=O)N[C@H](C(=O)N[C@@H](CCCCN)C(=O)N[C@@H](CC(C)C)C(=O)N[C@@H](CCCCNC(=O)COCCOCCNC(=O)CC[C@H](NC(=O)CCCCCCCCCCCCCCCCCCC(=O)O)C(=O)O)C(=O)N[C@@H](CCCCN)C(=O)N[C@H](C(=O)N[C@@H](CC(C)C)C(=O)N[C@@H](CC(C)C)C(=O)N[C@@H](CCC(=O)O)C(=O)N[C@@H](CCC(N)=O)C(=O)N[C@@H](CCC(=O)O)C(=O)N[C@@H](CCCCN)C(=O)N[C@@H](CCC(N)=O)C(=O)N[C@@H](CCCCN)C(=O)N[C@@H](CCC(=O)O)C(=O)N[C@@H](CCC(N)=O)C(=O)N[C@@H](CCCNC(=N)N)C(=O)N[C@@H](CCC(=O)O)C(=O)N[C@@H](CCC(N)=O)C(=O)N[C@@H](C)C(=O)N[C@@H](CCC(=O)O)C(=O)N[C@H](C(=O)N[C@@H](CC(N)=O)C(=O)NC(C)(C)C(=O)N[C@@H](CCC(N)=O)C(=O)N[C@H](C(=O)N[C@@H](CC(C)C)C(=O)N[C@@H](C)C(=O)N[C@@H](CCC(N)=O)C(=O)N[C@H](C(N)=O)C(C)C)[C@@H](C)CC)[C@@H](C)O)[C@@H](C)CC)[C@@H](C)CC)C(C)C)C(C)C
B4: SEQ ID NO 232 (peptide)
peptide: Ac-IVLSLD[dV]PIKLK([AEEA-γGlu-C20 diacid])KILLEQEKQKAQREQAETN[Aib]QILAQV-NH2
SMILES: CC[C@H](C)[C@H](NC(C)=O)C(=O)N[C@H](C(=O)N[C@@H](CC(C)C)C(=O)N[C@@H](CO)C(=O)N[C@@H](CC(C)C)C(=O)N[C@@H](CC(=O)O)C(=O)N[C@@H](C(=O)N1CCC[C@H]1C(=O)N[C@H](C(=O)N[C@@H](CCCCN)C(=O)N[C@@H](CC(C)C)C(=O)N[C@@H](CCCCNC(=O)COCCOCCNC(=O)CC[C@H](NC(=O)CCCCCCCCCCCCCCCCCCC(=O)O)C(=O)O)C(=O)N[C@@H](CCCCN)C(=O)N[C@H](C(=O)N[C@@H](CC(C)C)C(=O)N[C@@H](CC(C)C)C(=O)N[C@@H](CCC(=O)O)C(=O)N[C@@H](CCC(N)=O)C(=O)N[C@@H](CCC(=O)O)C(=O)N[C@@H](CCCCN)C(=O)N[C@@H](CCC(N)=O)C(=O)N[C@@H](CCCCN)C(=O)N[C@@H](C)C(=O)N[C@@H](CCC(N)=O)C(=O)N[C@@H](CCCNC(=N)N)C(=O)N[C@@H](CCC(=O)O)C(=O)N[C@@H](CCC(N)=O)C(=O)N[C@@H](C)C(=O)N[C@@H](CCC(=O)O)C(=O)N[C@H](C(=O)N[C@@H](CC(N)=O)C(=O)NC(C)(C)C(=O)N[C@@H](CCC(N)=O)C(=O)N[C@H](C(=O)N[C@@H](CC(C)C)C(=O)N[C@@H](C)C(=O)N[C@@H](CCC(N)=O)C(=O)N[C@H](C(N)=O)C(C)C)[C@@H](C)CC)[C@@H](C)O)[C@@H](C)CC)[C@@H](C)CC)C(C)C)C(C)C
B5: SEQ ID NO 14 (peptide)
peptide: H-IVLSLD[dV]PIKLK([γGlu-C16 diacid])QILLKQERQKKQREQAEKNTQILEQV-NH2
SMILES: CC[C@H](C)[C@H](N)C(=O)N[C@H](C(=O)N[C@@H](CC(C)C)C(=O)N[C@@H](CO)C(=O)N[C@@H](CC(C)C)C(=O)N[C@@H](CC(=O)O)C(=O)N[C@@H](C(=O)N1CCC[C@H]1C(=O)N[C@H](C(=O)N[C@@H](CCCCN)C(=O)N[C@@H](CC(C)C)C(=O)N[C@@H](CCCCNC(=O)CC[C@H](NC(=O)CCCCCCCCCCCCCCC(=O)O)C(=O)O)C(=O)N[C@@H](CCC(N)=O)C(=O)N[C@H](C(=O)N[C@@H](CC(C)C)C(=O)N[C@@H](CC(C)C)C(=O)N[C@@H](CCCCN)C(=O)N[C@@H](CCC(N)=O)C(=O)N[C@@H](CCC(=O)O)C(=O)N[C@@H](CCCNC(=N)N)C(=O)N[C@@H](CCC(N)=O)C(=O)N[C@@H](CCCCN)C(=O)N[C@@H](CCCCN)C(=O)N[C@@H](CCC(N)=O)C(=O)N[C@@H](CCCNC(=N)N)C(=O)N[C@@H](CCC(=O)O)C(=O)N[C@@H](CCC(N)=O)C(=O)N[C@@H](C)C(=O)N[C@@H](CCC(=O)O)C(=O)N[C@@H](CCCCN)C(=O)N[C@@H](CC(N)=O)C(=O)N[C@H](C(=O)N[C@@H](CCC(N)=O)C(=O)N[C@H](C(=O)N[C@@H](CC(C)C)C(=O)N[C@@H](CCC(=O)O)C(=O)N[C@@H](CCC(N)=O)C(=O)N[C@H](C(N)=O)C(C)C)[C@@H](C)CC)[C@@H](C)O)[C@@H](C)CC)[C@@H](C)CC)C(C)C)C(C)C
B6: SEQ ID NO 229 (peptide)
peptide: [NMeI]VLSLD[dV]PIGLK([γGlu-C20 diacid])KILLEQEKQKKQREQAETN[Aib]QILAQV-NH2
modifications: N-terminus assumed
SMILES: CC[C@H](C)[C@H](NC)C(=O)N[C@H](C(=O)N[C@@H](CC(C)C)C(=O)N[C@@H](CO)C(=O)N[C@@H](CC(C)C)C(=O)N[C@@H](CC(=O)O)C(=O)N[C@@H](C(=O)N1CCC[C@H]1C(=O)N[C@H](C(=O)NCC(=O)N[C@@H](CC(C)C)C(=O)N[C@@H](CCCCNC(=O)CC[C@H](NC(=O)CCCCCCCCCCCCCCCCCCC(=O)O)C(=O)O)C(=O)N[C@@H](CCCCN)C(=O)N[C@H](C(=O)N[C@@H](CC(C)C)C(=O)N[C@@H](CC(C)C)C(=O)N[C@@H](CCC(=O)O)C(=O)N[C@@H](CCC(N)=O)C(=O)N[C@@H](CCC(=O)O)C(=O)N[C@@H](CCCCN)C(=O)N[C@@H](CCC(N)=O)C(=O)N[C@@H](CCCCN)C(=O)N[C@@H](CCCCN)C(=O)N[C@@H](CCC(N)=O)C(=O)N[C@@H](CCCNC(=N)N)C(=O)N[C@@H](CCC(=O)O)C(=O)N[C@@H](CCC(N)=O)C(=O)N[C@@H](C)C(=O)N[C@@H](CCC(=O)O)C(=O)N[C@H](C(=O)N[C@@H](CC(N)=O)C(=O)NC(C)(C)C(=O)N[C@@H](CCC(N)=O)C(=O)N[C@H](C(=O)N[C@@H](CC(C)C)C(=O)N[C@@H](C)C(=O)N[C@@H](CCC(N)=O)C(=O)N[C@H](C(N)=O)C(C)C)[C@@H](C)CC)[C@@H](C)O)[C@@H](C)CC)[C@@H](C)CC)C(C)C)C(C)C

These binders were tested against human corticotropin-releasing factor 2a (CRF2a receptor) (human), Q13324 (assay: cell-based or functional assay).
human corticotropin-releasing factor 2a (CRF2a receptor) (human), Q13324, sequence (Q13324 20-411): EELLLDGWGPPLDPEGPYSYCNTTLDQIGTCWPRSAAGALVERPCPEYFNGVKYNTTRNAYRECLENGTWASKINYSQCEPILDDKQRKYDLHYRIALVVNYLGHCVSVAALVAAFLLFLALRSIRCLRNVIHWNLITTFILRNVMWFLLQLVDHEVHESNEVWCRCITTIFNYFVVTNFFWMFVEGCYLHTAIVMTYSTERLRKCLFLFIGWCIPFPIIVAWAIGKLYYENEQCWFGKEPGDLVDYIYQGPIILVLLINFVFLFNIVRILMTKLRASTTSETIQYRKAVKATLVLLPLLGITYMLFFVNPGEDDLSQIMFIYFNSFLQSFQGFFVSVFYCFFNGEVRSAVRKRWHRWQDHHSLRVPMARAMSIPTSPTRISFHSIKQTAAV

EC50 [nM] (cAMP) | Binder
0.12 nM | B1
0.16 nM | B2
0.28 nM | B3
0.12 nM | B4
0.26 nM | B5
0.11 nM | B6
